PMC6697693

Target: Δ258-UNC-23, stable fragment of UNC-23, fluorescently labelled (C. elegans)
Sequence (main, as listed by the source mutant): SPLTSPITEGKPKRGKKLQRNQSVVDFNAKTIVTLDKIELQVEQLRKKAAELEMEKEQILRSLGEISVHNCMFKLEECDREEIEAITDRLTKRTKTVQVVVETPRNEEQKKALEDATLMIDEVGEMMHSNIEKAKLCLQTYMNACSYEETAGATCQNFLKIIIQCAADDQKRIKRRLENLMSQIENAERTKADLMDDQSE

Sequence of wild type Hsc70 (nematode Hsc70, HSP-1) (P09446 whole entry): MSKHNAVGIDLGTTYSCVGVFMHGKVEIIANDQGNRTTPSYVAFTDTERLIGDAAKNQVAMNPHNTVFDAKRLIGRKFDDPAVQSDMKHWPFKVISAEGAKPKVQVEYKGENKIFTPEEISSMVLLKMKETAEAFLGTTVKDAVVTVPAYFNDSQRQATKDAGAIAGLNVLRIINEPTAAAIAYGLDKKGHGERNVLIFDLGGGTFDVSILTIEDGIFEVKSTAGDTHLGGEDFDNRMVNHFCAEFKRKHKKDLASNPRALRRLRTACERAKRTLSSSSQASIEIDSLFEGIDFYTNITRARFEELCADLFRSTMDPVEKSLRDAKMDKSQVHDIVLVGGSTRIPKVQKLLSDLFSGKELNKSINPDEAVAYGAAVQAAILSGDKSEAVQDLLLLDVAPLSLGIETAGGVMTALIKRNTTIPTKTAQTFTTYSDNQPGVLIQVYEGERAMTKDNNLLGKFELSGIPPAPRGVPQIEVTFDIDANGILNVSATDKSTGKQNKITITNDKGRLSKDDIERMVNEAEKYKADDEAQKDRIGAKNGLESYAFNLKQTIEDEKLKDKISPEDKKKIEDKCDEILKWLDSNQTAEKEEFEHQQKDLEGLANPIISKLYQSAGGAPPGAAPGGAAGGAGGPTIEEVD

Hsc70 D233N (from UniProt P09446 1-640) (natural protein)
ATPase stimulation (stimulated minus unstimulated turnover), 3 µM Hsc70 D233N with 3 µM UNC-23: 0.12 min⁻¹

Hsc70 A379V (from UniProt P09446 1-640) (natural protein)
ATPase stimulation (stimulated minus unstimulated turnover), 3 µM Hsc70 A379V with 3 µM UNC-23: 0.02 min⁻¹

wild type Hsc70 (nematode Hsc70, HSP-1) (from UniProt P09446 1-640) (natural protein)
ATPase stimulation (stimulated minus unstimulated turnover), 3 µM Hsc70 with 3 µM UNC-23: 0.18 min⁻¹

Hsc70 D384N (from UniProt P09446 1-640) (natural protein)
ATPase stimulation (stimulated minus unstimulated turnover), 3 µM Hsc70 D384N with 3 µM UNC-23: 0.24 min⁻¹
